In patent US20260034194A1, “PHARMACEUTICAL COMPOSITIONS AND METHODS OF TREATING PSP” (priority 2022, published 2026):
Like-named read-outs stand apart in the source and are kept apart here.

B1: Y558I: RcSxph STX binding pocket mutant Y558I (protein)
chain: MAPTFQTALFFTIISLSFAAPNAKQVRWCAISDLEQKKCNDLVGSCNVPDITLVCVLRSSTEDCMTAIKDGQADAMFLDSGEVYEASKDPYNLKPIIAEPYSSNRDLQKCLKERQQALAKKMIGHYIPQCDEKGNYQPQQCHGSTGHCWCVNAMGEKISGTNTPPGQTRATCERHELPKCLKERQVALGGDEKVLGRFVPQCDEKGNYEPQQFHGSTGYSWCVNAIGEEIAGTKTPPGKIPATCQKHDLVTTCHYAVAMVKKSSAFQFNQLKGKRSCHSGVSKTDGWKALVTVLVEKKLLSWDGPAKESIQRAMSKFFSVSCIPGATQTNLCKQCKGEEGKNCKNSHDEPYYGNYGAFRCLKEDMGDVAFLRSTALSDEHSEVYELLCPDNTRKPLNKYKECNLGTVPAGTVVTRKISDKTEDINNFLMEAQKRQCKLFSSAHGKDLMFDDSTLQLALLSSEVDAFLYLGVKLFHAMKALTGDAHLPSKNKVRWCTINKLEKMKCDDWSAVSGGAIACTEASCPKGCVKQILKGEADAVKLEVQYMYEALMCGLLPAVEEYHNKDDFGPCKTPGSPITDFGTLRAVALVKKSNKDINWNNIKGKKSCHTGVGDIAGWVIPVSLIRRQNDNSDIDSFFGESCAPGSDTKSNLCKLCIGDPKNSAANTKCSLSDKEAYYGNQGAFRCLVEKGDVAFVPHTVVFENTDGKNPAVWAKNLKSEDFELLCLDGSRAPVSNYKSCKLSGIPPPAIVTREESISDVVRIVANQQSLYGRKGFEKDMFQLFSSNKGNNLLFNDNTQCLITFDRQPKDIMEDYFGKPYYTTVYGASRSAMSSELISACTIKHC
B2: NpSxph: Nanorana parkeri (High Himalaya frog) saxiphilin, SEQ ID NO: 2 (protein, listed as Nanorana parkeri)
chain: MALTFHTALYFTIVGLSFAASDARHVQWCTISHLEQKKCNDLVGSCNVPDITLACVYRSSTENCMAAIKDGQADAMFLDSGDVYKASLDHYNLKPIIAEPYSLHRELTKCLKHRQESLGGDKMVKGRYIPQCDEKGNYHPVQCHASTGYCWCVNANGEKIEGTNTTPVQTPPTCPSQVLTKCLKERQEALGGKRIAIGRYIPQCDEQGNYRPMQCHGSTGYCWCVNAIGEKIEGTNTPPGNTQPTCQSHDWDTCHYAVAVVKNSSTFQFGQLKGKRSCHSGLSKTDGWNAPVNVFVEKKLLPWDGLAKGSIERAVSKFFSASCIPGATETNLCKQCIGEEEKKCKSSHDEPYYGDHGAFRCLQEDKGDVAFLKNTALPDEHSGVYELLCPDNTRKPLNKYKECNLGKVPADAVVTRKAGDKTKDINDFLLEAQKKKCKLFGSPHGKDLMFDDSTTHLAPLPSEIDAFFFLGVKWYNAMKALTEDVKLPSKNKVRWCTINKPEMMKCKDWAAVSGGAIACTEASCPEHCVKQILKGEADAVTLDVQYMYMALMCGLLPAVEEYPNKDDFHPCQIPGSTIKDFGTKRAVALVKKSNKDIKWNNLKGKKSCHTHVGDIPGWVIPAGLISNQNDNIDIESFFGESCAPGSDTNSKLCKLCIGDPENPKASTRCSLSDKEAYYGNEGAFRCLVEKGDVAFVPHTVVFANTDGKNPAEWAKDLKSEDFEILCLDGSRAPVTNYRGCNLSGLPPRAIVTREESVSDVVRILINQQSLYGRNGFEKDMFQMFSSAKGQNLLFNDETQCLIEFDRQPKDIMEDYFGVRYYTAVYSASRSAVPSELIPACTFKHC

Tests used:
[1] = format: binding; details: ITC, STX, 25° C.
Experimental: . […] In almost all mutants, binding affinity loss correlated with a reduction in enthalpy, consistent with a loss of interactions (Table S2). […]. […] Together, these three assays (FIGS. 1E and G) provide a robust and versatile suite of options for characterizing STX:Sxph interactions.
ITC measurements were performed at 25° C. using a MicroCal PEAQ-ITC calorimeter (Malvern Panalytical). […]. This STX stock was diluted with the SEC buffer to prepare 100 μM or 300 μM STX solutions having a final buffer composition of 135 mM NaCl, 9 mM HEPES, pH 7.4. […]. The calorimetric experiment settings were: reference power, 5 μcal/s; spacing between injections, 150 s; stir speed 750 rpm; and feedback mode, high. Data were analyzed using MicroCal PEAQ-ITC Analysis Software (Malvern Panalytical) using a single binding site model. The heat of dilution from titrations of 100 μM STX in 135 mM NaCl, 9 mM HEPES, pH 7.4 into 135 mM NaCl, 9 mM HEPES, pH 7.4 was subtracted from each experiment to correct the baseline.

[2] = test system: Phyllobates terribilis NaV1.4 (PtNaV1.4); assay: Two-electrode voltage clamp: Sxph rescue of PtNaV1.4 from STX block in Xenopus oocytes; format: cell-based; details: [Sxph]:[STX] ratio, 100 nM STX, PtNaV1.4 in Xenopus oocytes
[3] = format: binding; details: for Kd: 1 nM F-STX, 25° C., errors S.D.; for ΔΔG: ΔΔG = RT ln(Kd mutant or XSxph/Kd RcSxph), T = 298K, FP with F-STX
[4] = Thermofluor (TF) assay of STX binding; details: 1.1 μM Sxph, 0-20 μM STX; ΔTm at 20 μM toxin

Molecule | Kd [1] | ΔG [1] | ΔH [1] | ΔS (cal mol^−1 K^−1) [1] | Effective Rescue Ratio50 (ERR50) [2] | Kd ([3]; FP) | ΔΔG [3] | ΔH ([1]; listed as NpSxph WT) | ΔTm (STX-induced change of melting temperature) [4] | STX/F-STX affinity compared with RcSxph ([3]; FP)
B1 | 1.1 ± 0.5 nM | -12.2 ± 0.3 kcal/mol | -15.5 ± 0.3 kcal/mol | −10.5 ± 0.6 cal mol^−1 K^−1 | 0.81±0.01 | 1.2 ± 0.2 nM | -1.07 kcal/mol |  |  | 
B2 | 2.5 ± 0.1 nM | -11.8 ± 0.1 kcal/mol | -18.7 ± 0.2 kcal/mol | −23.2 ± 0.8 cal mol^−1 K^−1 |  | 0.5 ± 0.3 nM | -1.60 kcal/mol | -18.7 ± 0.2 kcal/mol | 3.6 °C | enhanced affinity
